# Test results from patent publication US20180305460A1 (Teva, published 2018).
# Where a chain is given by its changes, count along the chain named. Names may count otherwise.
# B1: X02.96 (antibody)
# heavy: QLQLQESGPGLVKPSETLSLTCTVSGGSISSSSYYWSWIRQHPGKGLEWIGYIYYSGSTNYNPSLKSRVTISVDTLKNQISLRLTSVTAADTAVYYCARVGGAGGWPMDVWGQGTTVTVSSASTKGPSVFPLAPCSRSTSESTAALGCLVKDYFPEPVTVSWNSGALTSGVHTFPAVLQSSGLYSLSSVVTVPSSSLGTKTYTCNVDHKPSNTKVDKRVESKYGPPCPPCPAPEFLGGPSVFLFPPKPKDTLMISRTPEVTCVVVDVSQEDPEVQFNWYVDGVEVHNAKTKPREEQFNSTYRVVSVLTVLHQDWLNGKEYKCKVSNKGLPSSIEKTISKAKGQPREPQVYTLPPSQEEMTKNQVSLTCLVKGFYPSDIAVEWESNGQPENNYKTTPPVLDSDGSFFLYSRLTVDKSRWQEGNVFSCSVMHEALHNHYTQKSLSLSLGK
# VL: QAVLTQPPSLSASPGESARLTCTLPSDINVRYYNIYWYQQKPGSPPRYLLYYYSDSHKGQGSGVPSRFSGSKDVSTNSGILLISGLQSEDEADYYCMTWSSNGSGVFGGGTQLTVLG
# notes: IgG4 S228P with the X02.1 VH; VL A8P relative to A02.1
# B2: X02.102 (antibody, V domains shown)
# VH: QLQLQESGPGLVKPSETLSLTCTVSGGSISSSSYYWSWIRQHPGKGLEWIGYIYYSGSTNYNPSLKSRVTISVDTLKNQISLRLTSVTAADTAVYYCARVGGAGGWPMDVWGQGTTVTVSS
# VL: B1 VL with P8A, T76A
# notes: IgG4 S228P with the X02.1 VH; VL T68A relative to A02.1
# B3: X02.103 (antibody, V domains shown)
# VH: B2 VH
# VL: B1 VL with P8A, S78T
# notes: IgG4 S228P with the X02.1 VH; VL S70T relative to A02.1
# B4: X02.101 (antibody, V domains shown)
# VH: B2 VH
# VL: B1 VL with P8A, V74A
# notes: IgG4 S228P with the X02.1 VH; VL V(66B)A relative to A02.1
# B5: X02.71 (antibody, human IgG4 S228P)
# heavy: not shown
# VL: B1 VL with P8A
# notes: IgG4 S228P; VH I29V relative to X02.1
# B6: X02.73 (antibody, human IgG4 S228P)
# heavy: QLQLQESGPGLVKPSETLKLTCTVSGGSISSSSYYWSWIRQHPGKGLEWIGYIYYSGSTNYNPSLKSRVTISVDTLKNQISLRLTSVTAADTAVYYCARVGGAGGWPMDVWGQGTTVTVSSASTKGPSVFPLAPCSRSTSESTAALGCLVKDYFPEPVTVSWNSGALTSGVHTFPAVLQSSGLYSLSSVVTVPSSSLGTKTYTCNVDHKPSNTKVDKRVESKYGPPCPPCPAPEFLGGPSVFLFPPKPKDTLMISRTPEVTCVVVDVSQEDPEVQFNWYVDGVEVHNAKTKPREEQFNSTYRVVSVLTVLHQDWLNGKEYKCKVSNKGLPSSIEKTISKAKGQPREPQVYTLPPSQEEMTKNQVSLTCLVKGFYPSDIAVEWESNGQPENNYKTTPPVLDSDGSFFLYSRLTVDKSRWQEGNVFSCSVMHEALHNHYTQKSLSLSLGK
# VL: B1 VL with P8A
# notes: IgG4 S228P; VH S19K relative to X02.1
# B7: X02.70 (antibody, human IgG4 S228P)
# heavy: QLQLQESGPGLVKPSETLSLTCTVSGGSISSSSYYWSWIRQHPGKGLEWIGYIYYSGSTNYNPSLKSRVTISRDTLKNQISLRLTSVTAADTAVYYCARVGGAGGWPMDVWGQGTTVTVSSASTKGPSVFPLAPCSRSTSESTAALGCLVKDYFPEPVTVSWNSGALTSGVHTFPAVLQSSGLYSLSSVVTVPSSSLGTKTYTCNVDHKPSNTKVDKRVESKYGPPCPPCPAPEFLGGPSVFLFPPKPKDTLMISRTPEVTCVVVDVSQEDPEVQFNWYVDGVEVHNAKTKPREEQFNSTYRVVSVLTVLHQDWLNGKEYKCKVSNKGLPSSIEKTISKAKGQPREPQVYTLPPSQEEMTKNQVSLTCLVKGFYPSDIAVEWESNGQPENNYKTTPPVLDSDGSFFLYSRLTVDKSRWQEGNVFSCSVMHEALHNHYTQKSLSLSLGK
# VL: B1 VL with P8A
# notes: IgG4 S228P; VH V71R relative to X02.1
# B8: X02.72 (antibody, human IgG4 S228P)
# heavy: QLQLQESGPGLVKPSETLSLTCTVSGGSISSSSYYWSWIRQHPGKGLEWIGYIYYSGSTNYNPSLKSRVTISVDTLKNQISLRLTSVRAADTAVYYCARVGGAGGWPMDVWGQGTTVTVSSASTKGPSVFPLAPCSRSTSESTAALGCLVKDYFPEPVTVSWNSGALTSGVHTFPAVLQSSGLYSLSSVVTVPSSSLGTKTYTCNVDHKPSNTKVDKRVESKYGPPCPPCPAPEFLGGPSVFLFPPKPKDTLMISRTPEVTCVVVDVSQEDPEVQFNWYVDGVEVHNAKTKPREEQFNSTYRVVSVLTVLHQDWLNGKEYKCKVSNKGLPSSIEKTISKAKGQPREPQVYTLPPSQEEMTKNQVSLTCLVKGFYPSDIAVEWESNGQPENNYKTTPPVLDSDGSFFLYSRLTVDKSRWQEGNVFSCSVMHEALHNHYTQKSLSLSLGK
# VL: B1 VL with P8A
# notes: IgG4 S228P; VH T83R relative to X02.1
# B9: X02.68 (antibody, human IgG4 S228P, V domains shown)
# VH: B2 VH with T23K
# VL: B1 VL with P8A
# notes: IgG4 S228P; VH T23K relative to X02.1
# B10: X02.75 (antibody, human IgG4 S228P)
# heavy: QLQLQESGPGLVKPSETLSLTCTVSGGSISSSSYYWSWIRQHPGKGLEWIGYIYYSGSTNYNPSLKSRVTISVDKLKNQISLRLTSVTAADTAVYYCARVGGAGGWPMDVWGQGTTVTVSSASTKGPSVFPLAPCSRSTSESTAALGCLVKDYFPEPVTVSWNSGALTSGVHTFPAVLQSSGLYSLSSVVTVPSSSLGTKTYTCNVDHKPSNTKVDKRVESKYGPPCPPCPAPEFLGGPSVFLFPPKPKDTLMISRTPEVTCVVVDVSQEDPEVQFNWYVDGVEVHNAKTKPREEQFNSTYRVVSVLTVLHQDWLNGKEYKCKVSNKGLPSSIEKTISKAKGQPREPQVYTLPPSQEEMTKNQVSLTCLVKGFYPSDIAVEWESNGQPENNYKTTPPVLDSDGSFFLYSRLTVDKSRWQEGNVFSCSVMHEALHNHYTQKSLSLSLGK
# VL: B1 VL with P8A
# notes: IgG4 S228P; VH T73K relative to X02.1
# B11: X02.9 (antibody, human IgG4 S228P)
# heavy: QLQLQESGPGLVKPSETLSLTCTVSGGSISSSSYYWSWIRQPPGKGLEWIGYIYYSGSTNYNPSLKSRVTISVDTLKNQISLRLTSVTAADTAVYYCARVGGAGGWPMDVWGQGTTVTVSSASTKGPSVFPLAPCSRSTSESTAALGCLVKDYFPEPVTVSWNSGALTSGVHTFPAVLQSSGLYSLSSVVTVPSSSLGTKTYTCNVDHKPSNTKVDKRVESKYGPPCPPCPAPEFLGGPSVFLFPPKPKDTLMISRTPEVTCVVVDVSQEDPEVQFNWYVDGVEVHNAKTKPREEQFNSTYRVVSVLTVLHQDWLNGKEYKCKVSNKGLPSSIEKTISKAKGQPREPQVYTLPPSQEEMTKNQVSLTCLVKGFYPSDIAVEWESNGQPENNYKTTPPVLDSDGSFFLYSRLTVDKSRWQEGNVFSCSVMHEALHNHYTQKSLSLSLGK
# VL: B1 VL with P8A
# notes: IgG4 S228P; VH H40P relative to X02.1
# B12: X02.8 (antibody, human IgG4 S228P)
# heavy: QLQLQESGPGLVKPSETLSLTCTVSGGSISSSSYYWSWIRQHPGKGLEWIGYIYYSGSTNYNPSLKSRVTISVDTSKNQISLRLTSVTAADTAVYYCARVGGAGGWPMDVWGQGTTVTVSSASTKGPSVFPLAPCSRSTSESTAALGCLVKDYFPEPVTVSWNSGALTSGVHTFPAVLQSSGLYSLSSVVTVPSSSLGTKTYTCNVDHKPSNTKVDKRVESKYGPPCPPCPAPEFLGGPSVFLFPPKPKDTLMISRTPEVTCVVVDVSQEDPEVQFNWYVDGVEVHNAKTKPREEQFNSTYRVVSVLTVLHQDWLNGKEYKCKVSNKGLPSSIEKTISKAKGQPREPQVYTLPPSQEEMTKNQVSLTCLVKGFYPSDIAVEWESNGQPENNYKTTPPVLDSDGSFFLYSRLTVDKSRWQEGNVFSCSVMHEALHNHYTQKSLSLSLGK
# VL: B1 VL with P8A
# notes: IgG4 S228P; VH L74S relative to X02.1
# B13: X02.108 (antibody, human IgG4 S228P, V domains shown)
# VH: B2 VH with I80F
# VL: B1 VL with P8A
# notes: IgG4 S228P; VH I78F relative to X02.1
# B14: X02.10 (antibody, human IgG4 S228P)
# heavy: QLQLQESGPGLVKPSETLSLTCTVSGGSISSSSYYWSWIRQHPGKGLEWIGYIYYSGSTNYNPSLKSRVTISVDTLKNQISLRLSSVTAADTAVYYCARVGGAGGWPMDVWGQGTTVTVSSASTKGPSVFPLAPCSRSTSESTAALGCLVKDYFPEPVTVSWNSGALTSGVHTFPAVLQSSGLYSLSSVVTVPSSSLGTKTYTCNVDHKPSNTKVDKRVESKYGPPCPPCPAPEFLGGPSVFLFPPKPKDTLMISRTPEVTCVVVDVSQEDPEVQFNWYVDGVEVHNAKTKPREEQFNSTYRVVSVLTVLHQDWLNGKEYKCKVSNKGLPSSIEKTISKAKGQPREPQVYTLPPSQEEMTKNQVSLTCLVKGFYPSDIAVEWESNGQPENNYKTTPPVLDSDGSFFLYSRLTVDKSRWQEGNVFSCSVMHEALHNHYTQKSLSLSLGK
# VL: B1 VL with P8A
# notes: IgG4 S228P; VH T(82A)S relative to X02.1
# B15: X02.110 (antibody, human IgG4 S228P, V domains shown)
# VH: B2 VH with R83K
# VL: B1 VL with P8A
# notes: IgG4 S228P; VH R81K relative to X02.1
# B16: X02.11 (antibody, human IgG4 S228P)
# heavy: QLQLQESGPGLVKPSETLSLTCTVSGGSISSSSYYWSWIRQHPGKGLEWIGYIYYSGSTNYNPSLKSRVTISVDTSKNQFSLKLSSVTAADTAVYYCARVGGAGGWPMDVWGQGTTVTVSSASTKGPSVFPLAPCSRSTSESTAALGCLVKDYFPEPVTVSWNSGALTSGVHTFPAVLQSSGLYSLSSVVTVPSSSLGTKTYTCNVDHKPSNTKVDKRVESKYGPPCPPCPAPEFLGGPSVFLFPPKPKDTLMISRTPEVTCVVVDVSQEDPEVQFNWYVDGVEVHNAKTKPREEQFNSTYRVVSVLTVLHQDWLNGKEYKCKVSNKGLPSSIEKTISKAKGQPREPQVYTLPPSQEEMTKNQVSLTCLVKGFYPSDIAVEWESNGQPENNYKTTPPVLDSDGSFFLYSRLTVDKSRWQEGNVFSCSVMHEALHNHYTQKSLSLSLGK
# VL: B1 VL with P8A
# notes: IgG4 S228P; VH L74S, I78F, R81K, T(82A)S relative to X02.1
# B17: X02.81 (antibody, V domains shown)
# VH: B2 VH
# VL: B1 VL with P8A, N77A
# notes: IgG4 S228P with the X02.1 VH; VL N69A relative to A02.1
# B18: X02.93 (antibody, V domains shown)
# VH: B2 VH
# VL: B1 VL with P8A, M97I
# notes: IgG4 S228P with the X02.1 VH; VL M89I relative to A02.1
# B19: X02.90 (antibody, V domains shown)
# VH: B2 VH
# VL: B1 VL with P8A, N102T
# notes: IgG4 S228P with the X02.1 VH; VL N94T relative to A02.1
# B20: X02.80 (antibody, V domains shown)
# VH: B2 VH
# VL: B1 VL with P8A, N102Q
# notes: IgG4 S228P with the X02.1 VH; VL N94Q relative to A02.1
# B21: X02.94 (antibody, V domains shown)
# VH: B2 VH
# VL: B1 VL with P8A, M97L
# notes: IgG4 S228P with the X02.1 VH; VL M89L relative to A02.1
# B22: X02.87 (antibody, V domains shown)
# VH: B2 VH
# VL: B1 VL with P8A, S104A
# notes: IgG4 S228P with the X02.1 VH; VL S96A relative to A02.1
# B23: X02.85 (antibody, V domains shown)
# VH: B2 VH
# VL: QAVLTQPASLSASPGESARLTCTLPSDINVRYYNIYWYQQKPGSPPRYLLYYYSDSHKGQGSGVPSRFSGSKSTNSGILLISGLQSEDEADYYCMTWSSNGSGVFGGGTQLTVLG
# notes: IgG4 S228P with the X02.1 VH; VL residues D(L66A) and V(L66B) of A02.1 are deleted
# B24: X02.91 (antibody, V domains shown)
# VH: B2 VH
# VL: B1 VL with P8A, P25R
# notes: IgG4 S228P with the X02.1 VH; VL P26R relative to A02.1
# B25: X02.83 (antibody)
# heavy: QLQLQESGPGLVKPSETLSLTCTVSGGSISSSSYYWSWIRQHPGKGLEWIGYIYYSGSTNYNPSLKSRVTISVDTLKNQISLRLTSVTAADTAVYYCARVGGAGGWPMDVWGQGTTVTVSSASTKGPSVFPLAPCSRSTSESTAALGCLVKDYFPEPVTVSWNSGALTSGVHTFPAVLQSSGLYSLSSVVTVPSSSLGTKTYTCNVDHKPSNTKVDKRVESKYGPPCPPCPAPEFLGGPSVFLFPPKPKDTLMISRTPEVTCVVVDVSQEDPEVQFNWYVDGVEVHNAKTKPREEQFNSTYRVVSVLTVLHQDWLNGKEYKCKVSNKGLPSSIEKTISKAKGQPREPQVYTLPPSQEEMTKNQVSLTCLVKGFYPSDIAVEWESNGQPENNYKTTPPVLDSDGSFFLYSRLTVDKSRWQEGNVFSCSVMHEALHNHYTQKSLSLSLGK
# VL: B1 VL with P8A, E16A
# notes: IgG4 S228P with the X02.1 VH; VL E17A relative to A02.1
# B26: X02.86 (antibody, V domains shown)
# VH: B2 VH
# VL: B1 VL with P8A, D27G
# notes: IgG4 S228P with the X02.1 VH; VL D(27A)G relative to A02.1
# B27: X02.82 (antibody, V domains shown)
# VH: B2 VH
# VL: B1 VL with P8A, Y51R
# notes: IgG4 S228P with the X02.1 VH; VL Y49R relative to A02.1
# B28: X02.76 (antibody, human IgG4 S228P)
# heavy: not shown
# VL: B1 VL with P8A
# notes: IgG4 S228P; VH M(100C)L relative to X02.1
# B29: X02.74 (antibody, human IgG4 S228P, V domains shown)
# VH: B2 VH with M108L, D109E
# VL: B1 VL with P8A
# notes: IgG4 S228P; VH M(100C)L, D101E relative to X02.1
# B30: X02.77 (antibody, human IgG4 S228P)
# heavy: not shown
# VL: B1 VL with P8A
# notes: IgG4 S228P; VH D101E relative to X02.1
# B31: X02.106 (antibody, V domains shown)
# VH: B2 VH
# VL: B1 VL with P8A, G103A
# notes: IgG4 S228P with the X02.1 VH; VL G95A relative to A02.1
# B32: X02.100 (antibody, V domains shown)
# VH: B2 VH
# VL: B1 VL with P8A, H57D
# notes: IgG4 S228P with the X02.1 VH; VL H(54A)D relative to A02.1
# B33: X02.95 (antibody)
# heavy: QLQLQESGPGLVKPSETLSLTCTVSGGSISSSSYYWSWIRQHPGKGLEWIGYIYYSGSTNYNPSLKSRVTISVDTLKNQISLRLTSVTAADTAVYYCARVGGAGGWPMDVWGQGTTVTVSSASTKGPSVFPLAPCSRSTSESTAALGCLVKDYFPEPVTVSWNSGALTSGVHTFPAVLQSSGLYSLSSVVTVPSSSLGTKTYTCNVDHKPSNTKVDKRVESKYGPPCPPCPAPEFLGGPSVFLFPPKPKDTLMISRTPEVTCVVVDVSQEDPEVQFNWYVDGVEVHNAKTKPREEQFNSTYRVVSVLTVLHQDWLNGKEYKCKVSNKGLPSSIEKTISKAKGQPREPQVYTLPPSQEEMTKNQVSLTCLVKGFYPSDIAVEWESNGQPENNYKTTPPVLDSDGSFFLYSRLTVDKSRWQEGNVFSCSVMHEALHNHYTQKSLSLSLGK
# VL: B1 VL with A2P, P8A
# notes: IgG4 S228P with the X02.1 VH; VL A2P relative to A02.1
# B34: X02.104 (antibody, V domains shown)
# VH: B2 VH
# VL: B1 VL with P8A, T98I
# notes: IgG4 S228P with the X02.1 VH; VL T90I relative to A02.1
# B35: X02.105 (antibody, V domains shown)
# VH: B2 VH
# VL: B1 VL with P8A, S100P
# notes: IgG4 S228P with the X02.1 VH; VL S92P relative to A02.1
# B36: X02.99 (antibody, V domains shown)
# VH: B2 VH
# VL: B1 VL with P8A, Y32S
# notes: IgG4 S228P with the X02.1 VH; VL Y30S relative to A02.1
# B37: X02.98 (antibody, V domains shown)
# VH: B2 VH
# VL: B1 VL with P8A, R31G
# notes: IgG4 S228P with the X02.1 VH; VL R29S relative to A02.1
# B38: X02.97 (antibody)
# heavy: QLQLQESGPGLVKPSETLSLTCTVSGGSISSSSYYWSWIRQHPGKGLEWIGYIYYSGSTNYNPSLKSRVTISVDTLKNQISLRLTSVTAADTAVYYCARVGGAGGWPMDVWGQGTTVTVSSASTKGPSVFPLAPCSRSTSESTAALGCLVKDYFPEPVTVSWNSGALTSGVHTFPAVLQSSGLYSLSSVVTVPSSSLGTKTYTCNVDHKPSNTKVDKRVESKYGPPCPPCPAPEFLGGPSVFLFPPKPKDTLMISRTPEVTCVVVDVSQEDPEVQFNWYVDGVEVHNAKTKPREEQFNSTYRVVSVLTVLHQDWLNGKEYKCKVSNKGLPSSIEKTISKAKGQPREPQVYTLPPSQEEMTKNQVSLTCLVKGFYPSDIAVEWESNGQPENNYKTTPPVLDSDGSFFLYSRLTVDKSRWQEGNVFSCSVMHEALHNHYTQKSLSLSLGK
# VL: B1 VL with P8A, L10S
# notes: IgG4 S228P with the X02.1 VH; VL L11S relative to A02.1
# Biological target: T1, Human CD38 on CD38-positive myeloma cells (ARP-1, H929) (human, UniProt P28907 43-300)
# T1 construct: Endogenous CD38 on the human myeloma cell lines ARP-1 and H929, used in flow cytometry; also called NCI-H929
# Assay: flow cytometry, ARP-1 cells (CD38-positive)
# Procedure: Antibodies purified from CHO cell supernatants were subsequently tested in flow cytometry-based binding assays to the CD38 positive cell line ARP-1.
# (§1) The ability of the antibodies or antibody-interferon constructs to bind the human CD38-positive myeloma cell lines ARP-1 or H929 in flow cytometry-based assays was tested. ARP-1 cells or H929 cells (5×10⁵, as judged by trypan blue exclusion) were incubated with each protein or with a human IgG4 monoclonal antibody with irrelevant specificity protein construct at various concentrations in 50 μL of FACS buffer (PBS plus 1% fetal calf serum, FCS, 0.2M HEPES, 0.5M EDTA) in 96 well plates for 60 minutes on ice in the dark. Cells were washed three times with FACS buffer before incubation for 30 minutes in 50 μL of FACS buffer containing goat anti-human IgG (Fc-specific, conjugated to fluorescein isothiocyanate, FITC; Sigma-Aldrich, St. Louis, Mo.). After washing three times with FACS buffer, cells were fixed with 50 μL of PBS containing 4% formaldehyde v/v and incubated at 4° C. in the dark for 16 hours. Incubated cells in suspension were diluted with an additional 150 μL of FACS buffer and analyzed for binding by flow cytometry on a FACS Canto II (BD Biosciences, San Diego, Calif.) using forward scatter, side scatter and fluorescence intensity in the FITC channel. The value reported is the mean fluorescence intensity (MFI).
row,EC50 [µg/mL],Binder
1,30,B1
2,20.4,B2
3,9.4,B3
4,13.7,B4

# Biological target: T2, Human CD38 (human, UniProt P28907 43-300)
# Assay: SPR (Biacore), antibody from supernatant captured on Protein A, human CD38 injected, 1:1 fit
# Procedure: (§2) The capacity of anti-CD38 antibodies and anti-CD38-attenuated IFN fusion proteins to bind to human CD38 were measured using unpurified transfected cell supernatant prepared 7:1 with Non Specific Binding Reducer (GE Healthcare, Piscataway, N.J.). […] FC2 (or FC4) was used as a reference throughout the experiments. The experiments were run at 37° C. in HBS-P+ buffer (0.01 M HEPES, 0.15 M NaCl, 0.005% v/v Surfactant P20, pH 7.4). At a flow rate of 20 l/min, both flow cells were regenerated with 10 μL 50 mM sodium hydroxide before 40 μL supernatant containing the protein was passed over FC1 (or FC3) only. 301 μL of CD38 (10 g/mL in running buffer) or 30 μL running buffer was injected over FC1 and FC2 with a 5 minute dissociation time. Both surfaces were regenerated twice with sodium hydroxide. Results were generated using the BIAevaluation software provided with the machine. Microsoft Excel was used for calculations. BIAevaluation software automatically subtracted the reference sensorgram giving a trace of FC2-1 (or FC4-3) for each sample. A double reference was performed for each antibody tested by subtracting the sensorgram with a CD38 injection from the sensorgram with a blank running buffer injection. […] BIAevalution was used to fit the sensorgram using a Langmuir 1:1 equation in order to generate an equilibrium association constant (KD)
row,Kd [nM],Binder
1,0.129,B5

# Biological target: T2, Human CD38
# Assay: as above
# Remark: another data set of the same source
# Procedure: as §2
row,Kd [nM],Binder
1,0.385,B6
2,3.54,B7
3,1.63,B8
4,0.0106,B9
5,0.638,B10

# Biological target: T2, Human CD38
# Assay: as above
# Remark: another data set of the same source
# Procedure: as §2
row,Kd [nM],Binder
1,26.3,B11
2,23,B12
3,26.3,B13
4,20.7,B14
5,20.7,B15
6,23.9,B16

# Biological target: T2, Human CD38
# Assay: as above
# Remark: another data set of the same source
# Procedure: as §2
row,Kd [nM],Binder
1,0.267,B17
2,0.0256,B18
3,0.552,B19
4,1.44,B20
5,0.00348,B21
6,1.99,B22

# Biological target: T2, Human CD38
# Assay: as above
# Remark: another data set of the same source
# Procedure: as §2
row,Kd [nM],Binder
1,0.27,B23
2,0.707,B24
3,2.69,B25
4,4.28,B26

# Biological target: T1, Human CD38 on CD38-positive myeloma …
# Assay: flow cytometry, ARP-1 cells (CD38-positive)
# Remark: another data set of the same source
# Procedure: The ability of the antibodies or antibody-interferon constructs to bind the human CD38-positive myeloma cell lines ARP-1 or H929 in flow cytometry-based assays was tested. ARP-1 cells or H929 cells (5×10⁵, as judged by trypan blue exclusion) were incubated with each protein or with a human IgG4 monoclonal antibody with irrelevant specificity protein construct at various concentrations in 50 μL of FACS buffer (PBS plus 1% fetal calf serum, FCS, 0.2M HEPES, 0.5M EDTA) in 96 well plates for 60 minutes on ice in the dark. Cells were washed three times with FACS buffer before incubation for 30 minutes in 50 μL of FACS buffer containing goat anti-human IgG (Fc-specific, conjugated to fluorescein isothiocyanate, FITC; Sigma-Aldrich, St. Louis, Mo.). After washing three times with FACS buffer, cells were fixed with 50 μL of PBS containing 4% formaldehyde v/v and incubated at 4° C. in the dark for 16 hours. Incubated cells in suspension were diluted with an additional 150 μL of FACS buffer and analyzed for binding by flow cytometry on a FACS Canto II (BD Biosciences, San Diego, Calif.) using forward scatter, side scatter and fluorescence intensity in the FITC channel.
row,EC50 [µg/mL],Binder
1,6.3,B23
2,8.2,B25
3,3.8,B27

# Biological target: T2, Human CD38
# Assay: SPR (Biacore), antibody from supernatant captured on Protein A, human CD38 injected, 1:1 fit
# Remark: another data set of the same source
# Procedure: as §2
row,Kd [nM],Binder
1,0.000158,B28
2,0.0685,B29
3,0.00911,B30

# Biological target: T1, Human CD38 on CD38-positive myeloma …
# Assay: flow cytometry, ARP-1 cells (CD38-positive)
# Remark: another data set of the same source
# Procedure: as §1
row,EC50 [µg/mL],Binder
1,18.3,B12
2,18.1,B16

# Biological target: T2, Human CD38
# Assay: SPR (Biacore), antibody from supernatant captured on Protein A, human CD38 injected, 1:1 fit
# Remark: another data set of the same source
# Procedure: as §2
row,Kd [nM],Binder
1,0.25,B1
2,0.12,B2
3,44.7,B31
4,160,B32
5,0.0044,B33
6,10,B34
7,1.28,B3
8,33.1,B35
9,0.0289,B4
10,0.00321,B36
11,0.00584,B37
12,0.00751,B38

# Biological target: T1, Human CD38 on CD38-positive myeloma …
# Assay: flow cytometry, ARP-1 cells (CD38-positive)
# Remark: another data set of the same source
# Procedure: These heavy chain variable regions were formatted on an IgG4 constant region containing an S228P substitution.
# as §1
row,EC50 [µg/mL],Binder
1,4.3,B6
2,7.2,B7
3,3.6,B8
4,4.9,B10
